Several values for one entry are separate records, joined by “and”; a condition that tells them apart may be missing. Equal values may be shown once.
Biological target: the molecule itself
Experiment: SDS-PAGE and Western blot after detergent removal

MIELSLIDFYLCFLAFLLFLVLIMLIIFWFSLELQDHNETCHA (natural protein) [ORF7b from SARS-CoV-2]
stoichiometry N: ≤ 10 and 5

— doi:10.1101/2021.02.05.428650 (bioRxiv, 2021)
